Like-named read-outs stand apart in the source and are kept apart here.
What was measured:
4H908-bH = molecular target: T1, 4H908-bH; test: two-hybrid library CCNG1;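 note: natural log of median RNA to DNA barcode read ratio; higher means stronger binding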
T1 chain: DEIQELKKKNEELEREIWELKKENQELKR

4H883-bN = molecular target: T2, 4H883-bN; test: two-hybrid library CCNG1;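 note: natural log of median RNA to DNA barcode read ratio; higher means stronger binding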
T2 chain: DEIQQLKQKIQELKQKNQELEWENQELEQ

4H754-bH = molecular target: T3, 4H754-bH; test: two-hybrid library CCNG1;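 note: natural log of median RNA to DNA barcode read ratio; higher means stronger binding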
T3 chain: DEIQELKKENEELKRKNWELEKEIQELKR

4H72-bH = molecular target: T4, 4H72-bH; test: two-hybrid library CCNG1;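 note: natural log of median RNA to DNA barcode read ratio; higher means stronger binding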
T4 chain: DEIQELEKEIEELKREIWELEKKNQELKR

4H717-bH = molecular target: T5, 4H717-bH; test: two-hybrid library CCNG1;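 note: natural log of median RNA to DNA barcode read ratio; higher means stronger binding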
T5 chain: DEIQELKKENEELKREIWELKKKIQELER

4H797-bH = molecular target: T6, 4H797-bH; test: two-hybrid library CCNG1;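 note: natural log of median RNA to DNA barcode read ratio; higher means stronger binding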
T6 chain: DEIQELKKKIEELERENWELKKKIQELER

4H967-bH = molecular target: T7, 4H967-bH; test: two-hybrid library CCNG1
T7 chain: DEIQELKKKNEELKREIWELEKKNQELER

4H883-bH = molecular target: T8, 4H883-bH; test: two-hybrid library CCNG1
T8 chain: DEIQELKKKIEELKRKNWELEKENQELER

4H953-bH = molecular target: T9, 4H953-bH; test: two-hybrid library CCNG1
T9 chain: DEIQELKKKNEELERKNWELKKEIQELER

4H918-bH = molecular target: T10, 4H918-bH; test: two-hybrid library CCNG1
T10 chain: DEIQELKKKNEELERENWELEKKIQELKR

4H607-bH = molecular target: T11, 4H607-bH; test: two-hybrid library CCNG1
T11 chain: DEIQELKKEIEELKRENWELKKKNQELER

4H687-bH = molecular target: T12, 4H687-bH; test: two-hybrid library CCNG1
T12 chain: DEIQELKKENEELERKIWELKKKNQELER

4H932-bA = molecular target: T13, 4H932-bA; test: two-hybrid library CCNG1
T13 chain: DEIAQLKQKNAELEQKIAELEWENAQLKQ

4H968-bH = molecular target: T14, 4H968-bH; test: two-hybrid library CCNG1
T14 chain: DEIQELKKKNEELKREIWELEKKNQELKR

4H3666-AA = molecular target: T15, 4H3666-AA; test: two-hybrid library CCmax; settings: mean of both orientations
T15 chain: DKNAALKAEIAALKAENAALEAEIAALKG

4H675-AA = molecular target: T16, 4H675-AA; test: two-hybrid library CCmax
T16 chain: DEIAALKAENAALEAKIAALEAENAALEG

4H971-AA = molecular target: T17, 4H971-AA; test: two-hybrid library CCmax; settings: mean of both orientations
T17 chain: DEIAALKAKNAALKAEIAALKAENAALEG

4H3939-AA = molecular target: T18, 4H3939-AA; test: two-hybrid library CCmax; settings: mean of both orientations
T18 chain: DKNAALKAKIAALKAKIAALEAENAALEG

4H391-AA = molecular target: T19, 4H391-AA; test: two-hybrid library CCmax; settings: mean of both orientations
T19 chain: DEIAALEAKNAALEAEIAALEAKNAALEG

4H478-AA = molecular target: T20, 4H478-AA; test: two-hybrid library CCmax; settings: mean of both orientations
T20 chain: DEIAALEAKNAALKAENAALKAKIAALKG

4H3920-AA = molecular target: T21, 4H3920-AA; test: two-hybrid library CCmax; settings: mean of both orientations
T21 chain: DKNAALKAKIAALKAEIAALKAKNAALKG

4H3709-AA = molecular target: T22, 4H3709-AA; test: two-hybrid library CCmax; settings: mean of both orientations
T22 chain: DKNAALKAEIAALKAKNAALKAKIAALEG

4H497-AA = molecular target: T23, 4H497-AA; test: two-hybrid library CCmax; settings: mean of both orientations
T23 chain: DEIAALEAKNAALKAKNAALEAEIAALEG

4H428-AA = molecular target: T24, 4H428-AA; test: two-hybrid library CCmax; settings: mean of both orientations
T24 chain: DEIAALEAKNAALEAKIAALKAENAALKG

4H656-AA = molecular target: T25, 4H656-AA; test: two-hybrid library CCmax; settings: mean of both orientations
T25 chain: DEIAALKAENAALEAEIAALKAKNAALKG

4H3628-AA = molecular target: T26, 4H3628-AA; test: two-hybrid library CCmax
T26 chain: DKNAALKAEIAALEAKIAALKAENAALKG

4H3591-AA = molecular target: T27, 4H3591-AA; test: two-hybrid library CCmax
T27 chain: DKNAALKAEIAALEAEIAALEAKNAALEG

4H87-AA = molecular target: T28, 4H87-AA; test: two-hybrid library CCmax
T28 chain: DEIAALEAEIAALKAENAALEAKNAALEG

APC8910-AA = molecular target: T29, APC8910-AA; test: two-hybrid library CCmax
T29 chain: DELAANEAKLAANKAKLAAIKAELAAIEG

APC9319-AA = molecular target: T30, APC9319-AA; test: two-hybrid library CCmax; settings: mean of both orientations
T30 chain: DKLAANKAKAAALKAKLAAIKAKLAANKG

APC9096-AA = molecular target: T31, APC9096-AA; test: two-hybrid library CCmax; settings: mean of both orientations
T31 chain: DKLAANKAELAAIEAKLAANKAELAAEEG

4H568-bH = molecular target: T32, 4H568-bH; test: two-hybrid library CCNG1
T32 chain: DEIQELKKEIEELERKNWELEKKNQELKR

4H3865-AA = molecular target: T33, 4H3865-AA; test: two-hybrid library CCmax; settings: mean of both orientations
T33 chain: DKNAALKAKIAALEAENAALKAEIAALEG

4H3697-AA = molecular target: T34, 4H3697-AA; test: two-hybrid library CCmax; settings: mean of both orientations
T34 chain: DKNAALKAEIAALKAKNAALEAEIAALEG

4H3631-AA = molecular target: T35, 4H3631-AA; test: two-hybrid library CCmax; settings: mean of both orientations
T35 chain: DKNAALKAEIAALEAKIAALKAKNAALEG

4H982-AA = molecular target: T36, 4H982-AA; test: two-hybrid library CCmax; settings: mean of both orientations
T36 chain: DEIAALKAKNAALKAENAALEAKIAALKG

4H384-AA = molecular target: T37, 4H384-AA; test: two-hybrid library CCmax; settings: mean of both orientations
T37 chain: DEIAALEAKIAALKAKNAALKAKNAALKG

4H3413-AA = molecular target: T38, 4H3413-AA; test: two-hybrid library CCmax; settings: mean of both orientations
T38 chain: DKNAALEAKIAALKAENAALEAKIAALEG

4H3718-AA = molecular target: T39, 4H3718-AA; test: two-hybrid library CCmax; settings: mean of both orientations
T39 chain: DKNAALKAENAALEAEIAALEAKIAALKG

4H697-AA = molecular target: T40, 4H697-AA; test: two-hybrid library CCmax; settings: mean of both orientations
T40 chain: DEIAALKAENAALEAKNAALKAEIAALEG

4H340-AA = molecular target: T41, 4H340-AA; test: two-hybrid library CCmax
T41 chain: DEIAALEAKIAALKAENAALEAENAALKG

4H3606-AA = molecular target: T42, 4H3606-AA; test: two-hybrid library CCmax; settings: mean of both orientations
T42 chain: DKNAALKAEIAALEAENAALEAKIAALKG

4H3588-AA = molecular target: T43, 4H3588-AA; test: two-hybrid library CCmax; settings: mean of both orientations
T43 chain: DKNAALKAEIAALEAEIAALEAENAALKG

B1: 4H717-bH (peptide)
chain: DEIQELKKENEELKREIWELKKKIQELER
With B1 the interaction score (4H908-bH) was -1.59, the interaction score (4H883-bN) was -0.103 and the interaction score (4H754-bH) was 0.538. It also gave an interaction score (4H72-bH) of -0.629, an interaction score (4H717-bH) of 0.358 and an interaction score (4H797-bH) of -1.17. For the same binder, the interaction score (4H967-bH) was -0.767, the interaction score (4H883-bH) was -0.589 and the interaction score (4H953-bH) was -0.135. It also gave an interaction score (4H918-bH) of 0.0812.

B2: 4H607-bH (peptide)
chain: DEIQELKKEIEELKRENWELKKKNQELER
In the case of B2, the interaction score (4H908-bH) is reported as -1.04, the interaction score (4H754-bH) is reported as -0.342 and the interaction score (4H72-bH) is reported as -1.24. It also gave an interaction score (4H717-bH) of 0.512, an interaction score (4H797-bH) of -1.49 and an interaction score (4H967-bH) of -2. For the same binder, the interaction score (4H883-bH) was 0.522, the interaction score (4H953-bH) was -0.825 and the interaction score (4H918-bH) was -0.801. The interaction score (4H607-bH) was 0.163 and the interaction score (4H687-bH) was -0.72.

B3: 4H918-bH (peptide)
chain: DEIQELKKKNEELERENWELEKKIQELKR
Binder B3 has an interaction score (4H967-bH) of -0.25, an interaction score (4H953-bH) of -0.806 and an interaction score (4H918-bH) of 1.26. It also gave an interaction score (4H932-bA) of -1.28 and an interaction score (4H968-bH) of -0.174.

B4: 4H3628-AA (peptide)
chain: DKNAALKAEIAALEAKIAALKAENAALKG
B4 was tested, and the interaction score (4H3666-AA) was -1.56, the interaction score (4H675-AA; mean of both orientations) was -1.51 and the interaction score (4H971-AA) was -1.01. It also gave an interaction score (4H3939-AA) of 0.744, an interaction score (4H391-AA) of -1.27 and an interaction score (4H478-AA) of -2.19. It also gave an interaction score (4H3920-AA) of 0.724, an interaction score (4H3709-AA) of -1.58 and an interaction score (4H497-AA) of -1.67. It also gave an interaction score (4H428-AA) of -0.847, an interaction score (4H656-AA) of -1.43 and an interaction score (4H3628-AA) of 0.286.

B5: 4H3591-AA (peptide)
chain: DKNAALKAEIAALEAEIAALEAKNAALEG
Work on B5 yielded an interaction score (4H3666-AA) of -1.67, an interaction score (4H675-AA) of -1.63 and an interaction score (4H971-AA) of -1.24. For the same binder, the interaction score (4H3591-AA) was -1.51, the interaction score (4H3939-AA) was 1.03 and the interaction score (4H391-AA) was -2.02. The interaction score (4H478-AA) was -1.53, the interaction score (4H3920-AA) was 0.759 and the interaction score (4H3709-AA) was -0.696. The interaction score (4H497-AA) was -1.86, the interaction score (4H428-AA) was -1.03 and the interaction score (4H656-AA) was -0.984. For the same binder, the interaction score (4H3628-AA; mean of both orientations) was -0.555.

B6: 4H87-AA (peptide)
chain: DEIAALEAEIAALKAENAALEAKNAALEG
B6 showed an interaction score (4H87-AA) of -0.571.

B7: APC8910-AA (peptide)
chain: DELAANEAKLAANKAKLAAIKAELAAIEG
B7 was tested, and the interaction score (APC8910-AA) was -2.88, the interaction score (APC9319-AA) was -2.07 and the interaction score (APC9096-AA) was -2.09.

B8: 4H568-bH (peptide)
chain: DEIQELKKEIEELERKNWELEKKNQELKR
For B8, the interaction score (4H908-bH) was 0.115, the interaction score (4H754-bH) was 0.644 and the interaction score (4H72-bH) was -1.52. The interaction score (4H717-bH) was 0.643, the interaction score (4H797-bH) was -0.219 and the interaction score (4H967-bH) was 0.179. The interaction score (4H568-bH) was -1.25, the interaction score (4H883-bH) was 1 and the interaction score (4H953-bH) was -1.24. For the same binder, the interaction score (4H918-bH) was -0.673, the interaction score (4H607-bH) was 0.0933 and the interaction score (4H687-bH) was -0.423.

B9: 4H340-AA (peptide)
chain: DEIAALEAKIAALKAENAALEAENAALKG
In the case of B9, the interaction score (4H3865-AA) is reported as -1.26, the interaction score (4H3697-AA) is reported as -1.98 and the interaction score (4H3631-AA) is reported as -0.0653. The interaction score (4H982-AA) was -1.24, the interaction score (4H384-AA) was 1.51 and the interaction score (4H3413-AA) was -1.52. The interaction score (4H3718-AA) was -0.983, the interaction score (4H697-AA) was -1.32 and the interaction score (4H340-AA) was 0.807. It also gave an interaction score (4H3606-AA) of -0.46 and an interaction score (4H3588-AA) of -0.126.

— publication PMC10397247
